± gives the uncertainty stated by the source.
Experiment: protein stability index of a GFP-peptide fusion (yeast GPS) (PSI 1-4); higher = more stable; sorted into four equal gates, so the index is relative within each strain
Summary of the method: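 Each library plasmid carries Cherry plus GFP with a tiled 17-residue yeast protein peptide fused downstream, and the pooled library was carried in yeast. Mid-log cultures in leucine-free medium were sorted into four equal gates by GFP/Cherry ratio. Reads from Illumina sequencing of PCR-amplified plasmids from each gate were assigned to strains by barcodes. Per peptide, the protein stability index was computed as the summed products of gate read frequency and gate number.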

DDYYKEIIGGGSKSASK [ISW2]
protein stability index (doa10∆): 2.37 ± 0.12
protein stability index (pdr5∆): 3.09 ± 0.11
protein stability index (san1∆): 3 ± 0.09
protein stability index (ubr1∆): 2.69 ± 0.086

DEIDAALDFRNVSIVAN [SMC4]
protein stability index (doa10∆): 1.75 ± 0.056
protein stability index (pdr5∆): 1.91 ± 0.05
protein stability index (san1∆): 2.03 ± 0.076
protein stability index (ubr1∆): 1.54 ± 0.051

DTRSTQGPIVADKNCAK [PUP1]
protein stability index (doa10∆): 3.13 ± 0.11
protein stability index (pdr5∆): 3.59 ± 0.12
protein stability index (san1∆): 3.15 ± 0.1
protein stability index (ubr1∆): 3.04 ± 0.086

ANTGGQDKIELSEEETL [SNF2]
protein stability index (doa10∆): 2.62 ± 0.12
protein stability index (pdr5∆): 2.8 ± 0.25
protein stability index (san1∆): 3.08 ± 0.063
protein stability index (ubr1∆): 2.94 ± 0.12

LEILIVTKDGVRKEFYE [PRE7]
protein stability index (doa10∆): 2.91 ± 0.063
protein stability index (pdr5∆): 2.54 ± 0.049
protein stability index (san1∆): 3.14 ± 0.043
protein stability index (ubr1∆): 2.92 ± 0.049

EVFSRPEWMILTCLPVP [RPO21]
protein stability index (doa10∆): 1.42 ± 0.12
protein stability index (pdr5∆): 1.48 ± 0.12
protein stability index (san1∆): 1.51 ± 0.14
protein stability index (ubr1∆): 1.67 ± 0.063

GDLASLVLLNGRLRNKS [RPP1]
protein stability index (doa10∆): 2.83 ± 0.054
protein stability index (pdr5∆): 2.85 ± 0.041
protein stability index (san1∆): 2.83 ± 0.04
protein stability index (ubr1∆): 2.81 ± 0.038

SIMPDLYFYRNPEEVEQ [RPS0B]
protein stability index (doa10∆): 2.86 ± 0.082
protein stability index (pdr5∆): 2.95 ± 0.077
protein stability index (san1∆): 2.94 ± 0.063
protein stability index (ubr1∆): 2.85 ± 0.06

KGEVVLVNIRTQTSKEQ [ITC1]
protein stability index (doa10∆): 2.4 ± 0.075
protein stability index (pdr5∆): 2.5 ± 0.15
protein stability index (san1∆): 2.58 ± 0.1
protein stability index (ubr1∆): 2.56 ± 0.095

IELLCGLGKSAVNWQDK [NAS6]
protein stability index (san1∆): 3.75 ± 0.086

IPSIPNPIANHTVTNSP [SNF5]
protein stability index (doa10∆): 2.46 ± 0.039
protein stability index (pdr5∆): 2.68 ± 0.036
protein stability index (san1∆): 2.45 ± 0.041
protein stability index (ubr1∆): 2.6 ± 0.027

IQWYKSLLEKDIDAVNG [ISW2]
protein stability index (doa10∆): 2.73 ± 0.085
protein stability index (pdr5∆): 3.02 ± 0.075
protein stability index (san1∆): 2.81 ± 0.2
protein stability index (ubr1∆): 2.82 ± 0.055

FTKYKPARSSSLRSNVV [YAR002W/NUP60]
protein stability index (doa10∆): 1.79 ± 0.046
protein stability index (pdr5∆): 2.44 ± 0.045
protein stability index (san1∆): 2.17 ± 0.07
protein stability index (ubr1∆): 2.7 ± 0.04

FNRALDQSISKLQSWDK [NNF1]
protein stability index (doa10∆): 1.63 ± 0.066
protein stability index (pdr5∆): 1.49 ± 0.068
protein stability index (san1∆): 1.51 ± 0.085
protein stability index (ubr1∆): 1.78 ± 0.051

LRQLASYYSREQDALFI [RPN1]
protein stability index (doa10∆): 1.7 ± 0.045
protein stability index (pdr5∆): 1.8 ± 0.046
protein stability index (san1∆): 1.63 ± 0.08
protein stability index (ubr1∆): 1.81 ± 0.042

DEEYPVKVKVSYQKLLK [PRP8]
protein stability index (doa10∆): 3.03 ± 0.091
protein stability index (pdr5∆): 1.86 ± 0.078
protein stability index (san1∆): 1.91 ± 0.15
protein stability index (ubr1∆): 2.6 ± 0.054

VQQSEKLRNEVERIQKM [YIL149C/MLP2]
protein stability index (doa10∆): 3.13 ± 0.13
protein stability index (pdr5∆): 3.42 ± 0.2
protein stability index (san1∆): 2.86 ± 0.2
protein stability index (ubr1∆): 3.24 ± 0.12

KHGAKKVAKRTKIKPFI [RPL27A]
protein stability index (doa10∆): 2.91 ± 0.081
protein stability index (pdr5∆): 2.97 ± 0.082
protein stability index (san1∆): 2.95 ± 0.059
protein stability index (ubr1∆): 3.24 ± 0.035

SVMMQDSPASNEDDLTV [RPO31]
protein stability index (doa10∆): 3.02 ± 0.097
protein stability index (pdr5∆): 3.08 ± 0.083
protein stability index (san1∆): 2.78 ± 0.076
protein stability index (ubr1∆): 3.31 ± 0.12

SETPLQKTVNLKNIMKV [RPN4]
protein stability index (doa10∆): 2.25 ± 0.08
protein stability index (pdr5∆): 2.6 ± 0.085
protein stability index (san1∆): 2.56 ± 0.11
protein stability index (ubr1∆): 2.48 ± 0.043

NENFRLVYDVKGRFAVH [RPS4A]
protein stability index (doa10∆): 3.41 ± 0.14
protein stability index (pdr5∆): 2.55 ± 0.17
protein stability index (san1∆): 3.32 ± 0.12
protein stability index (ubr1∆): 3.25 ± 0.13

QRGEDDLTFKLADILKA [RPO21]
protein stability index (doa10∆): 2.34 ± 0.082
protein stability index (pdr5∆): 2.61 ± 0.1
protein stability index (san1∆): 2.45 ± 0.066
protein stability index (ubr1∆): 2.1 ± 0.046

LFNNHLNGILADEMGLG [SNF2]
protein stability index (doa10∆): 2.83 ± 0.11
protein stability index (pdr5∆): 2.64 ± 0.1
protein stability index (san1∆): 3.28 ± 0.068
protein stability index (ubr1∆): 2.59 ± 0.092

SDNSEEEEVDIDMDKLN [RRP43]
protein stability index (doa10∆): 3.25 ± 0.069
protein stability index (pdr5∆): 3.25 ± 0.071
protein stability index (san1∆): 3.4 ± 0.077
protein stability index (ubr1∆): 3.11 ± 0.05

LHQRTHKQVYPLRMETI [DSN1]
protein stability index (doa10∆): 2.28 ± 0.06
protein stability index (pdr5∆): 2.66 ± 0.042
protein stability index (san1∆): 2.44 ± 0.048
protein stability index (ubr1∆): 2.6 ± 0.039

YEAYPNTSLPPSILEDS [FAS1]
protein stability index (doa10∆): 2.15 ± 0.033
protein stability index (pdr5∆): 2.4 ± 0.03
protein stability index (san1∆): 2.25 ± 0.037
protein stability index (ubr1∆): 2.4 ± 0.027

ATHLPKDNVEHLVMRAI [RPN9]
protein stability index (doa10∆): 2.88 ± 0.089
protein stability index (pdr5∆): 3.09 ± 0.07
protein stability index (san1∆): 2.77 ± 0.067
protein stability index (ubr1∆): 2.9 ± 0.06

KYKLISRIVEIFALCIY [YML103C/NUP188]
protein stability index (doa10∆): 1.58 ± 0.059
protein stability index (pdr5∆): 2.19 ± 0.055
protein stability index (san1∆): 1.86 ± 0.076
protein stability index (ubr1∆): 1.85 ± 0.059

DLVLQILEDTATMSVFL [RRI2]
protein stability index (doa10∆): 2.86 ± 0.063
protein stability index (pdr5∆): 2.36 ± 0.055
protein stability index (san1∆): 2.98 ± 0.054
protein stability index (ubr1∆): 2.71 ± 0.038

WSHNGPFETFDHASIRR [CYT1]
protein stability index (doa10∆): 2.79 ± 0.06
protein stability index (pdr5∆): 3 ± 0.062
protein stability index (san1∆): 2.79 ± 0.051
protein stability index (ubr1∆): 2.96 ± 0.043

CARFLGNRGFSIGINDV [RPO31]
protein stability index (doa10∆): 2.32 ± 0.21
protein stability index (ubr1∆): 2.88 ± 0.21

RHNKSHTLCNRCGRRSF [RPL37A]
protein stability index (doa10∆): 3.25 ± 0.045
protein stability index (pdr5∆): 3.18 ± 0.064
protein stability index (san1∆): 2.82 ± 0.042
protein stability index (ubr1∆): 3.08 ± 0.039

KNAQYHLLVKQGDGLLT [RPN7]
protein stability index (doa10∆): 1.96 ± 0.1
protein stability index (pdr5∆): 1.61 ± 0.079
protein stability index (san1∆): 1.12 ± 0.18
protein stability index (ubr1∆): 1.22 ± 0.08

MCVSKGNASLKYIALQV [YCG1]
protein stability index (doa10∆): 2.54 ± 0.099
protein stability index (pdr5∆): 2.02 ± 0.077
protein stability index (san1∆): 1.48 ± 0.12
protein stability index (ubr1∆): 2.6 ± 0.084

AEKLVPLPICHANSVVA [YML031W/NDC1]
protein stability index (doa10∆): 1.68 ± 0.2
protein stability index (pdr5∆): 1.34 ± 0.091
protein stability index (san1∆): 1.61 ± 0.2
protein stability index (ubr1∆): 1.42 ± 0.16

PYDKKKRVVVPQALRVL [RPL16A]
protein stability index (doa10∆): 2.32 ± 0.14
protein stability index (ubr1∆): 1.35 ± 0.14

MKQPYVFVKKHHELIKV [SSN2]
protein stability index (doa10∆): 1.33 ± 0.072
protein stability index (pdr5∆): 1.27 ± 0.051
protein stability index (san1∆): 1.21 ± 0.08
protein stability index (ubr1∆): 1.2 ± 0.051

NRDPVKHAEFDLSLLGY [SIR2]
protein stability index (pdr5∆): 2.75 ± 0.21

ASVRIKDKFNQIPLHRA [NAS6]
protein stability index (doa10∆): 2.55 ± 0.095
protein stability index (pdr5∆): 2.68 ± 0.12
protein stability index (san1∆): 2.91 ± 0.14
protein stability index (ubr1∆): 3.17 ± 0.055

LSISVAAEPMDSKMIQD [SNU114]
protein stability index (doa10∆): 2.73 ± 0.061
protein stability index (pdr5∆): 3.03 ± 0.081
protein stability index (san1∆): 2.84 ± 0.077
protein stability index (ubr1∆): 3.18 ± 0.11

— the supplement of paper PMC9732359
